Assay results as given in PMC2062912.

Target: recombinant avidin (hen) (UniProt P02701)
Test: SEC + other: electrophoresis; purified renatured rec-AV alone; conditions not given; details referred to Shin et al, 1997

stoichiometry N: 4
Substance: recombinant avidin (from UniProt P02701 25-152) (natural protein)
